Results on 6 substances are retold here after patent US20220403031A1.

Assay [1] deals with cynomolgus monkey PD-L1 on 293F cells (W315-293F.cynoPro1.2A2) (cynomolgus monkey) (UniProt G7PSE7). The assay is described as follows: FACS on cynomolgus PD-L1 293F cells.
The target is the same in assay [2]. Put plainly: FACS affinity on cynomolgus PD-L1 cells, quantitative beads. Details: Bmax: unit not given here.
Assay [3] addresses mouse PD-L1 on 293F cells (W315-293F.mPro1.C1) (mouse) (UniProt Q9EP73). Put plainly: FACS competition: antibody titrated against 5 ug/mL mouse PD-1 ECD mFc on mouse PD-L1 293F cells.
The target is the same in assay [4]. Put plainly: FACS on mouse PD-L1 293F cells.
Assay [5] shares this target. The assay is described as follows: FACS affinity on mouse PD-L1 cells, quantitative beads.
Assay [6] deals with human PD-L1 on CHO-K1 cells (W315-CHO-K1.hPro1.C11) (human) (UniProt Q9NZQ7). The assay is described as follows: FACS affinity on human PD-L1 cells, quantitative beads.
Assay [7] has the same target. Put plainly: FACS on human PD-L1 CHO-K1 cells.
Assay [8] shares this target. Put plainly: FACS competition: antibody titrated against 5 ug/mL human PD-1 ECD mFc on human PD-L1 CHO-K1 cells.
Assay [9] concerns the target 4-1BB.his (Homo sapiens (Human)) (UniProt Q07011). Put plainly: non-specific binding ELISA; secondary antibody alone on coated antigen.
Assay [10] has as its target OX40.his. The description is as above.
In assay [11] the target is CTLA4.his. The assay is described as above.
Assay [12] deals with CD3.his. The description is as above.
The target of assay [13] is PD-1.his (Homo sapiens (Human)) (UniProt Q15116). The assay is described as above.
Assay [14] concerns the target human serum Albumin (human) (UniProt P02768). The description is as above.
For assay [15], the target named is VEGF.his. The assay is described as above.
The target of assay [16] is CD147.his. The description is as above.
In assay [17] the target is Factor VIII. The assay is described as above.
Assay [18] concerns the target FGFR.his. The description is as above.
Assay [19] concerns the target CD22.his. The assay is described as above.
In assay [20] the target is HER3.his (Homo sapiens (Human)) (UniProt P21860). The description is as above.
Assay [21] concerns the target CD40. Described as above.
For assay [22], the target named is 4-1BB.his (Homo sapiens (Human)) (UniProt Q07011). The assay is described as follows: non-specific binding ELISA; antigen coated at 2 ug/mL, antibody at 10 ug/ml. A general note: In an ELISA, binding on a coated surface is turned into a signal by an enzyme label.
The target in assay [23] is OX40.his. The assay is described as above.
Assay [24] deals with CTLA4.his. The assay is described as above.
In assay [25] the target is CD3.his. The description is as above.
The target of assay [26] is PD-1.his (Homo sapiens (Human)) (UniProt Q15116). Described as above.
Assay [27] has as its target human serum Albumin (human) (UniProt P02768). The assay is described as above.
The target in assay [28] is VEGF.his. The description is as above.
For assay [29], the target named is CD147.his. The assay is described as above.
Assay [30] has as its target Factor VIII. The assay is described as above.
In assay [31] the target is FGFR.his. Described as above.
For assay [32], the target named is CD22.his. The description is as above.
Assay [33] addresses HER3.his (Homo sapiens (Human)) (UniProt P21860). The description is as above.
The target of assay [34] is CD40. The description is as above.
Chain of CD40 (P25942 21-193): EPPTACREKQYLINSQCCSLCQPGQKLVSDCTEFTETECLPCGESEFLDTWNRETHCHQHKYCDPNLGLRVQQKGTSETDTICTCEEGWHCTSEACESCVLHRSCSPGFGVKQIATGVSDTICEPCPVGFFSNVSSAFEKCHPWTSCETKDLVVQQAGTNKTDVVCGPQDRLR

Chain of human PD-L1 on CHO-K1 cells (W315-CHO-K1.hPro1.C11) (human) (Q9NZQ7 19-290): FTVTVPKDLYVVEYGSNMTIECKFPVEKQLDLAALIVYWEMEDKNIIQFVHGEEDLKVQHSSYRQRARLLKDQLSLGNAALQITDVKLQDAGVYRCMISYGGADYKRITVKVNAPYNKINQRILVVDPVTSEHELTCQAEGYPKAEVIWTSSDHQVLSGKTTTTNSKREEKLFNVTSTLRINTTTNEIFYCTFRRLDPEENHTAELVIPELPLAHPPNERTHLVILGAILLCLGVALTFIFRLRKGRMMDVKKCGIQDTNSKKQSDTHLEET
Chain of cynomolgus monkey PD-L1 on 293F cells (W315-293F.cynoPro1.2A2) (cynomolgus monkey) (G7PSE7 entry or part of it): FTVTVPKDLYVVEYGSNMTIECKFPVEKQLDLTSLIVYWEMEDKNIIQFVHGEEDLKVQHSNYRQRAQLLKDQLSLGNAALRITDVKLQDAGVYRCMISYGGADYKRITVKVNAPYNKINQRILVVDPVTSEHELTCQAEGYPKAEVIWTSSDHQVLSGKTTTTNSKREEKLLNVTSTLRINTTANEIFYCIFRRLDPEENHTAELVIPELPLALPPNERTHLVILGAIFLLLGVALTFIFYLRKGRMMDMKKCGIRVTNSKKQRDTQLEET
Chain of PD-1.his (Homo sapiens (Human)) (Q15116 25-170 limits assumed): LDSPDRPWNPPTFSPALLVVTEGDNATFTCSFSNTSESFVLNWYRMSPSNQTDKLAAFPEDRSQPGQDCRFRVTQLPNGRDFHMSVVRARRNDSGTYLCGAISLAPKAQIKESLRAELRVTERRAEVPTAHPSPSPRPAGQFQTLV
Chain of OX40.his (P43489 29-214): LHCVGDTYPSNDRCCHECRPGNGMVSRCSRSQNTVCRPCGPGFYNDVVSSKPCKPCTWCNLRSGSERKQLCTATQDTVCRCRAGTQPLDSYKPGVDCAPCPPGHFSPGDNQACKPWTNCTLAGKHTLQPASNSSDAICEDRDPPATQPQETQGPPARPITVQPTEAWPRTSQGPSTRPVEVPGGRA
Chain of 4-1BB.his (Homo sapiens (Human)) (Q07011 24-186 limits assumed): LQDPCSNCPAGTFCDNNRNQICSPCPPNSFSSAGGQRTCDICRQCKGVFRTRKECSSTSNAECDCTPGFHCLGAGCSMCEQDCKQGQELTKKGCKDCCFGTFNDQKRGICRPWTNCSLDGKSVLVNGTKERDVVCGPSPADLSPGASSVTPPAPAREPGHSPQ
Chain of CTLA4.his (P16410 36-161): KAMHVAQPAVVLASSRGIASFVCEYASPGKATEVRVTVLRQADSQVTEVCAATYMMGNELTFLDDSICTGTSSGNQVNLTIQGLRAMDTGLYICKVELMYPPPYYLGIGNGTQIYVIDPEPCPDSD
Chain of mouse PD-L1 on 293F cells (W315-293F.mPro1.C1) (mouse) (Q9EP73 19-290): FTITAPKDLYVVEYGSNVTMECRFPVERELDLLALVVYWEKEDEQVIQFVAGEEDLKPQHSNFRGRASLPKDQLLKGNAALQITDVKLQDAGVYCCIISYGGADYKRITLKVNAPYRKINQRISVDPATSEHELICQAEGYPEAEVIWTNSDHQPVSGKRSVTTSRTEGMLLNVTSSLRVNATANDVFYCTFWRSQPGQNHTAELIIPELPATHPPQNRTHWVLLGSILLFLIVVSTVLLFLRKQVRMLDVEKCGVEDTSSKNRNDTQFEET

A word on the EC50: it is the concentration giving half of the maximal effect. As usually defined, the Kd is a measure of binding affinity in units of concentration. In [1], “BMK6.hIgG4 (Benchmark antibody 6, variable region of Imfinzi conjugated with human IgG4 constant region)” displayed an EC50 of 2.65 nM. In assay [2], this substance returned a Bmax of 1.6e-08 and a Kd of 21 nM.

A word on the IC50: it is the midpoint of a concentration-inhibition curve. In [3], “BMK8.hIgG4 (Benchmark antibody 8, variable region of Tecentriq conjugated with human IgG4 constant region)” displayed an IC50 of 1.45 nM. The EC50 in assay [4] was 1.48 nM; in assay [1], 2.19 nM. Moreover, the Bmax in assay [5] worked out at 8.3e-10; in assay [6], 3.3e-10; in assay [2] it was 8.8e-09. For the same substance, the Kd in assay [5] is 1.7 nM; in assay [6] it was 0.53 nM; in [2], 16 nM.

As to “BMK9.Fc(IgG1) (Benchmark antibody 9, same sequence with KN035) (Fc fusion)”, the EC50 in assay [7] was determined as 0.456 nM; in [1], 2.33 nM. This substance also returned an IC50 in assay [8] of 0.798 nM.

For “Goat anti-human IgG Fc-HRP (Bethyl, A80-304P) (antibody)”, the Absorbance at 450 nm in assay [9] was 0.05; with OX40.his [10], 0.05; with CTLA4.his [11] it was 0.05; with CD3.his [12], 0.05; in assay [13], 0.05; in assay [14], 0.37. The Absorbance at 450 nm in the assay with VEGF.his [15] is 0.06; in the assay with CD147.his [16] it was 0.05; in the assay with Factor VIII [17], 0.06; with FGFR.his [18], 0.13; with CD22.his [19] it was 0.05; in assay [20] it was 0.05. The Absorbance at 450 nm in the assay with CD40 [21] amounted to 0.24.

Turning to hIgG4K Isotype control (antibody), the Absorbance at 450 nm was determined as 0.07 in [22]; 0.06 with OX40.his [23]; 0.09 with CTLA4.his [24]; 0.07 with CD3.his [25]; 3.29 in assay [26]; 0.41 in assay [27]. The Absorbance at 450 nm is 0.11 in the assay with VEGF.his [28]; 0.06 with CD147.his [29]; 0.15 in the assay with Factor VIII [30]; 0.13 in the assay with FGFR.his [31]; 0.06 with CD22.his [32]; 0.07 in assay [33]. In addition, the Absorbance at 450 nm with CD40 [34] stood at 0.25.

As to hIgG4L Isotype control (antibody), the Absorbance at 450 nm in assay [22] stood at 0.06; in the assay with OX40.his [23] it was 0.06; with CTLA4.his [24], 0.06; with CD3.his [25], 0.07; in [26], 0.05; in [27], 0.41. The Absorbance at 450 nm with VEGF.his [28] was determined as 0.08; with CD147.his [29], 0.06; in the assay with Factor VIII [30] it was 0.07; with FGFR.his [31], 0.13; with CD22.his [32], 0.06; in assay [33] it was 0.06. This substance also registered an Absorbance at 450 nm with CD40 [34] of 0.24.
